# Results as given in US20200055939A1 (Genentech, published 2020).
# Where two headings read alike, the source gives them in different places.
# T1: MICA004.His (human MICA*004 alpha 3 domain, His tagged) (human)
# T1 construct: also called huMICA*004 alpha 3-his
# T1 chain: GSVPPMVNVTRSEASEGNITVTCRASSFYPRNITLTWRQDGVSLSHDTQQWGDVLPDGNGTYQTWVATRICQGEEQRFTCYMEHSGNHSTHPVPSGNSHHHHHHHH
# T2: MICA002.His (human MICA*002 alpha 3 domain, His tagged) (human)
# T2 construct: also called huMICA*002 alpha 3-his
# T2 chain: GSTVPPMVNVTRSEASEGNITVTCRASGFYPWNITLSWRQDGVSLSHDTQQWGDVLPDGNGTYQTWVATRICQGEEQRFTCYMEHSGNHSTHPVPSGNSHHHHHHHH
# T3: MICB005.His (human MICB*005 alpha 3 domain, His tagged) (human)
# T3 construct: also called huMICB*005 alpha 3-his
# T3 chain: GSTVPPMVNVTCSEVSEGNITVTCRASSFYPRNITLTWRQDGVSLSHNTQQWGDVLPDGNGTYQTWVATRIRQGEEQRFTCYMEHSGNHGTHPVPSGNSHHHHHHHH
# T4: MICA008.His (human MICA*008 alpha 3 domain, His tagged) (human)
# T4 construct: Also used for FPOP (expressed in CHO); also called huMICA*008 alpha 3-his; MICA*008 a3
# T4 chain: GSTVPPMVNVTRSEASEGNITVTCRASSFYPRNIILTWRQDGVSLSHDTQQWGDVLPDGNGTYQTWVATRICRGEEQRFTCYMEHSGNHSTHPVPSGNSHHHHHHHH
# T5: MICA.008.a3.T204-S297.C-terminal insert of N298.G299.S300.mIgG2a.Glyco17 (human; mouse, UniProt Q29983 204-297, engineered N-linked glycosylation site at inserted N298)
# T5 construct: not shown: murine IgG2a Fc
# T5 chain: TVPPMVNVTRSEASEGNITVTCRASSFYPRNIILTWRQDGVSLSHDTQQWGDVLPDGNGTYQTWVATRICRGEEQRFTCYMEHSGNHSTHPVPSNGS
# T6: MICA.008.a3.T204-S297.G243N.mIgG2a.Glyco14 (human; mouse, UniProt Q29983 204-297, engineered N-linked glycosylation site G243N)
# T6 construct: not shown: murine IgG2a Fc
# T6 chain: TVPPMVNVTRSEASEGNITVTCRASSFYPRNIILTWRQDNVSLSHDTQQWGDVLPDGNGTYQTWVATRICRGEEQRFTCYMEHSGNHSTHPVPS
# T7: MICA.008.a3.T204-S297.I236T.mIgG2a.Glyco13 (human; mouse, UniProt Q29983 204-297, engineered N-linked glycosylation site created by I236T)
# T7 construct: not shown: murine IgG2a Fc
# T7 chain: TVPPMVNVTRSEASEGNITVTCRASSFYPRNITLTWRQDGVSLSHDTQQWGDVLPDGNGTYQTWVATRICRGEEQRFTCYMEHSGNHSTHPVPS
# T8: MICA.008.a3.T204-S297.H248N.mIgG2a.Glyco15 (human; mouse, UniProt Q29983 204-297, engineered N-linked glycosylation site H248N)
# T8 construct: not shown: murine IgG2a Fc
# T8 chain: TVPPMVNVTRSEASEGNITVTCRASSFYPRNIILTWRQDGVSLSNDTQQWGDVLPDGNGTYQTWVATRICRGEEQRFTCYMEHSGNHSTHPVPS
# T9: MICA.008.a3.R202-S297.R202N mIgG2a.Glyco11 (human; mouse, UniProt Q29983 203-297, engineered N-linked glycosylation site R202N)
# T9 construct: not shown: murine IgG2a Fc
# T9 chain: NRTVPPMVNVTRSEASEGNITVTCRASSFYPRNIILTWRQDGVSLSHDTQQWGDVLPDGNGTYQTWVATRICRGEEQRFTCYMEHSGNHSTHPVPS
# T10: MICA.008.a3.T204-S297.E215N.mIgG2a.Glyco12 (human; mouse, UniProt Q29983 204-297, engineered N-linked glycosylation site E215N)
# T10 construct: not shown: murine IgG2a Fc
# T10 chain: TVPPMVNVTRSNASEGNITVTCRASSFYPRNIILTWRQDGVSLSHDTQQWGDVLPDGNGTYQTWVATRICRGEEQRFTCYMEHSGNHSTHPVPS
# T11: MICB*005 on HCC1534 cells (human, UniProt Q29980 23-383)
# T11 sequence (looked up): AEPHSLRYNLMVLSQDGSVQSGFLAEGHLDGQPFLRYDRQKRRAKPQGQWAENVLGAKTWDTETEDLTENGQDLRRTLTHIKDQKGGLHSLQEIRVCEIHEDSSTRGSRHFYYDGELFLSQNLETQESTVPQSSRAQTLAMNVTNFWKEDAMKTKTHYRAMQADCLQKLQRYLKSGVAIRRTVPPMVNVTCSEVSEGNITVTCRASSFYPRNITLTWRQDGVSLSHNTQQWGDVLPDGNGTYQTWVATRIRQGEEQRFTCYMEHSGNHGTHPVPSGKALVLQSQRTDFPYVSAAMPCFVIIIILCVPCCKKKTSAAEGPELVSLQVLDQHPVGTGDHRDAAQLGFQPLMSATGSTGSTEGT
# T12: MICA*008 on MEL-JUSO cells (human, UniProt Q29983 24-317)
# T12 chain: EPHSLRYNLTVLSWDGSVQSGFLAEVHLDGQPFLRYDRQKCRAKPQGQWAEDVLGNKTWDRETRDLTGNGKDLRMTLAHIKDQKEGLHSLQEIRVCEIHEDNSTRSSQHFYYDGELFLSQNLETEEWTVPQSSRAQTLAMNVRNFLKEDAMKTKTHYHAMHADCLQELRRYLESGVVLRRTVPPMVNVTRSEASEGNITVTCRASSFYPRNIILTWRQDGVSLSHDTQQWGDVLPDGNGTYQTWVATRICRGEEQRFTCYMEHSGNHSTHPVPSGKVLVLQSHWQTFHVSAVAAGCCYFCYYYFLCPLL
# T13: MICA.008.a3.T204-S297.R279N.mIgG2a.Glyco16 (human; mouse, UniProt Q29983 204-297, engineered N-linked glycosylation site R279N)
# T13 construct: not shown: murine IgG2a Fc
# T13 chain: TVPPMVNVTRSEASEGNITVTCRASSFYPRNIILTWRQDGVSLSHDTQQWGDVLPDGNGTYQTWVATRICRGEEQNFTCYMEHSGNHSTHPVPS
# Columns and labels:
# [1] = target: T1, MICA004.His (human MICA*004 alpha 3 …); assay: SPR, antibody captured;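 also: SPR with antibody held by surface-bound anti-Fc while His-tagged alpha three domains flow over, Kd derived by fitting a one-to-one binding model to sensograms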
# Procedure: (§1) The binding kinetics of the anti-MICA/B antibodies were measured using surface plasmon resonance (SPR) on a Biacore T200 instrument (GE Healthcare). Anti-murine Fc or anti-human Fc (GE Healthcare) was immobilized on a CM5 sensor chip via amine-based coupling using manufacturer provided protocol. Anti-MICA/B antibody was captured by the anti- Fc and the MICA/B alleles were passed over. Antibody binding was measured to human MICA 002, 004, 008 and MICB 005 alpha 3 domains (His tagged, in-house). Sensograms for binding of MICA/B were recorded using an injection time of 2-3 minutes with a flow rate of 30 ml/min, at a temperature of 25° C., and with a running buffer of 10mM HEPES, pH 7.4, 150 mM NaCl, and 0.005% Tween 20. After injection, disassociation of the alpha 3 domain from the antibody was monitored for 10 minutes in running buffer. The surface was regenerated between binding cycles with a 60 ul injection of 10 mM Glycine HCl pH 1.7. […] The data was analyzed using a 1:1 binding model. Sensograms of MICA alleles binding to captured anti-MICA antibody were used to calculate the dissociation constant (Kd).
# [2] = target: T2, MICA002.His (human MICA*002 alpha 3 …); assay: SPR, antibody captured;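 also: SPR with antibody held by surface-bound anti-Fc while His-tagged alpha three domains flow over, Kd derived by fitting a one-to-one binding model to sensograms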
# Procedure: as §1
# [3] = target: T3, MICB005.His (human MICB*005 alpha 3 …); assay: SPR, antibody captured;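 also: SPR with antibody held by surface-bound anti-Fc while His-tagged alpha three domains flow over, Kd derived by fitting a one-to-one binding model to sensograms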
# Procedure: as §1
# [4] = target: T4, MICA008.His (human MICA*008 alpha 3 …); assay: SPR, antibody captured;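 also: SPR with antibody held by surface-bound anti-Fc while His-tagged alpha three domains flow over, Kd derived by fitting a one-to-one binding model to sensograms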
# Procedure: as §1
# [5] = target: T4, MICA008.His (human MICA*008 alpha 3 …); assay: SPR (Biacore), MICA*008 alpha-3 domain
# [6] = target: T5, MICA.008.a3.T204-S297.C-terminal insert …; assay: ELISA, coated variant;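 also: ELISA with plates coated at 2 ug/ml with MICA*008 alpha 3 glycosylation variants as murine IgG2a Fc fusions, antibody binding detected by HRP anti-human IgG Fc and TMB absorbance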
# Procedure: (§2) Hybridoma derived clones binding to all four MICA/B alleles alpha 3 domains were tested by ELISA for binding to the MICA*008 alpha 3 glycosylation variants fused to murine IgG2a Fc fusion. Nunc maxisorp plates were coated with 2 ug/ml of glycosylation variants as previously described. Cloned and recombinantly expressed hybridoma monoclonal antibodies were added to the plates after blocking with a 1X PBS buffer containing 0.5% BSA and 0.05% Tween 20. After incubation, plates were washed multiple times with wash buffer (1X PBS containing 0.05% Tween 20) and secondary antibody (goat anti-human IgG Fc conjugated to HRP) was added. Plates were then washed multiple times with wash buffer again before adding either BioFX TMB Microwell 1 Component Peroxidase or tetramethylbenzidine (TMB) substrate (KPL; Gaithersburg, Md.). After several minutes of incubation, the reaction was stopped with BioFX stop solution or 1 N solution of HCl, respectively. Plates were read on a Spectra MAX 340 plate reader at either 630 or 450 nm respectively (Molecular Devices; Sunnyvale, Calif.).
# [7] = target: T6, MICA.008.a3.T204-S297.G243N.mIgG2a.Glyco …; assay: ELISA, coated variant;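 also: ELISA with plates coated at 2 ug/ml with MICA*008 alpha 3 glycosylation variants as murine IgG2a Fc fusions, antibody binding detected by HRP anti-human IgG Fc and TMB absorbance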
# Procedure: as §2
# [8] = target: T7, MICA.008.a3.T204-S297.I236T.mIgG2a.Glyco …; assay: ELISA, coated variant;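 also: ELISA with plates coated at 2 ug/ml with MICA*008 alpha 3 glycosylation variants as murine IgG2a Fc fusions, antibody binding detected by HRP anti-human IgG Fc and TMB absorbance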
# Procedure: as §2
# [9] = target: T8, MICA.008.a3.T204-S297.H248N.mIgG2a.Glyco …; assay: ELISA, coated variant;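 also: ELISA with plates coated at 2 ug/ml with MICA*008 alpha 3 glycosylation variants as murine IgG2a Fc fusions, antibody binding detected by HRP anti-human IgG Fc and TMB absorbance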
# Procedure: as §2
# [10] = target: T9, MICA.008.a3.R202-S297.R202N …; assay: ELISA, coated variant
# Procedure: as §2
# [11] = target: T10, MICA.008.a3.T204-S297.E215N.mIgG2a.Glyco …; assay: ELISA, coated variant
# Procedure: as §2
# [12] = target: T14, MICA*004 on HCC1534 cells (human, UniProt Q29983 24-383); assay: cell-based or functional assay
# [13] = target: T11, MICB*005 on HCC1534 cells; assay: cell-based or functional assay
# [14] = target: T12, MICA*008 on MEL-JUSO cells; assay: cell-based or functional assay
# [15] = target: T14, MICA*004 on HCC1534 cells; assay: cell-based or functional assay; remark: listed apart in the source
# [16] = target: T11, MICB*005 on HCC1534 cells; assay: cell-based or functional assay; remark: listed apart in the source
# [17] = target: T14, MICA*004 on HCC1534 cells; assay: cell-based or functional assay; remark: listed apart in the source
# [18] = target: MICA*002 on cells (PANC-1; B16-MICA002) (human, UniProt Q29983 24-383); assay: cell-based or functional assay
# [19] = target: T11, MICB*005 on HCC1534 cells; assay: cell-based or functional assay; remark: listed apart in the source
# [20] = target: T12, MICA*008 on MEL-JUSO cells; assay: cell-based or functional assay
# [21] = target: T13, MICA.008.a3.T204-S297.R279N.mIgG2a.Glyco …; assay: ELISA, coated variant
# Procedure: as §2
Binder,Kd [1] [nM],Kd [2] [nM],Kd [3] [nM],Kd [4] [nM],Kd [5] [nM],binding result [6],binding result [8],binding result [9],binding result [10],binding result [11],% max inhibition of shedding [12] [%],EC50 of shedding inhibition [12] [µg/mL],% max inhibition of shedding [13] [%],EC50 of shedding inhibition [13] [µg/mL],% max inhibition of shedding [14] [%],EC50 of shedding inhibition [14] [µg/mL],binding result [21],further results
"20G11 (antibody, V domains shown, Mouse hybridoma antibody; constant regions differ by assay) VH: DVQLVESGGGLVQPGGSRKLSCAASGFTFSTFGIHWVRQAPEKGLEWVAYISYDSRTIYYADTVKGRFTISRDNPKNTLFLQMTSLRSEDTAMYYCARWAYEGGVNYFDNWGQGTTLTVSS VL: QIVLTQSPAIMSASLGERVTMTCTATSGVSSSYLHWYQQKPGSSPKLWIYSSSNLASGVPARFSGSGSGTSYSLTIGSMEAEDAATYYCHQFHRSPLTFGTGTKVEIK",1.06,1.76,1.05,0.77,3.8,binds,binds,binds,binds,binds,69,0.123,51,0.0169,70,0.0285,–,binding result [7]: binds
"1D5 (antibody, V domains shown, Mouse variable domains; constant regions differ by assay (human IgG1 or mouse IgG2a); also called anti-MIC 1D5) VH: EIQLQQSGPELVKPGASVKVSCKASGYAFTSQNIYWVKQSHGKSLEWIGYIEPYNVVPMYNPKFKGKATLTVDKSSSSAYIHLNSLTSEDSAIYYCARSGSSNFDYWGQGTTLTVSS VL: EIILTQSPTTMAASPGEKITITCSASSSISSHYLHWYQQKSGFSPKLLIYRTSNLASGVPARFSGSGSGTSYSLTIGTMEAEDVATYYCQQGSSLPLTFGAGTKVEIK",0.49,0.67,1.09,0.42,0.5,binds,binds,binds,binds,binds,81,0.0435,54,0.0128,77,0.0087,–,maximum inhibition of shedding [15]: ~60%; maximum inhibition of shedding [16]: ~50%; EC50 of shedding inhibition [17]: 0.0136 µg/mL; Max % Inhibition of shedding [17]: 65%; EC50 of shedding inhibition [18]: 0.0342 µg/mL; Max % Inhibition of shedding [18]: 48%; EC50 of shedding inhibition [19]: 0.0386 µg/mL; Max % Inhibition of shedding [19]: 59%; EC50 of shedding inhibition [20]: 0.0207 µg/mL; Max % Inhibition of shedding [20]: 74%
"18G3 (antibody, V domains shown, Mouse variable domains; constant regions differ by assay) VH: VQLQESGPGLVKPSQSLSLTCNVTGYSITGDYAWNWIRQFPGNKLEWIGYIGYTGSTTYNPSLKSRVSITRDTSKNQFFLQLNSVTPEDTATYYCARWRNWAMDYWGLGTSVTVSS VL: DIQMTQTPSSLSASLGDRVTISCRANQDISHYLNWYQQKPDGAVKLLIYYTSRIHSGVPSRFSGSGSGTDYSLTIANLEQEDVATYFCQQGNTPPTTFGGGTKVEIK",4.03,10.4,6.18,2.03,2.6,binds,binds,binds,binds,binds,74,0.012,48,0.0124,75,0.0191,binds,–
"12H10 (antibody, V domains shown, Mouse variable domains; constant regions differ by assay) VH: DVQLQESGPGLVKPSQPLSLTCTVTGYSITSNYAWNWIRQFPGDKLEWMGYISSSGITKSNPSLKSRISITRDTSKNQFFLQLNSLTTEDTATYYCSRWSNWSFDVWGAGTTVTVSS VL: DIQMTQTPSSLSVSLGDRVTINCRASQDIHNYFNWYQQKPDGTIKLLIYYTSRFHSGVPSRFSGSGSGTDYSLTISNLEEEDIATYFCQQGNSLPPTFGGGTKLEIK",7.02,25.8,10.7,1.48,1.9,binds,binds,binds,binds,binds,76,0.0689,54,0.139,81,0.0103,binds,–
